Measurements as given in patent US20200164085A1 (Merck Sharp & Dohme, published 2020).

T1: human CD74 (human, UniProt P04233 1-296)
T1 sequence (looked up): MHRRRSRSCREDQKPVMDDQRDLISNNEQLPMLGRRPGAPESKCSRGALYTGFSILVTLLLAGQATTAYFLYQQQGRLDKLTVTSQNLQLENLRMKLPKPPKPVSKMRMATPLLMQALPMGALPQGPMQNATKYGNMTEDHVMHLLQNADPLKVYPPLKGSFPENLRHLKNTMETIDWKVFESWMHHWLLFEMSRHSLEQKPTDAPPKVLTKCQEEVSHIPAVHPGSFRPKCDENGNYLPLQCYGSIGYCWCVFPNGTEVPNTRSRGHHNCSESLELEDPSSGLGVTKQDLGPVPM

B1: ADC 12-5 (anti-hCD74 (LL1) conjugated to Linker 2-7) (antibody, human IgG1, kappa, V domains shown)
VH: QVQLQQSGSELKKPGASVKVSCKASGYTFTNYGVNWIKQAPGQGLQWMGWINPNTGEPTFDDDFKGRFAFSLDTSVSTAYLQISSLKADDTAVYFCSRSRGKNEAWFAYWGQGSLVTVSS
VL: DIQLTQSPLSLPVTLGQPASISCRSSQSLVHRNGNTYLHWFQQRPGQSPRLLIYTVSNRFSGVPDRFSGSGSGTDFTLKISRVEAEDVGVYFCSQSSHVPPTFGAGTRLEIKR
modifications: position 121 is para-azido phenylalanine (pAzF), conjugated to dexamethasone drug-linker 2-7
B2: ADC 12-6 (anti-hCD74 (LL1) conjugated to Linker 3-4) (antibody, human IgG1, kappa, V domains shown)
VH: B1 VH
VL: B1 VL
modifications: position 121 is para-azido phenylalanine (pAzF), conjugated to dexamethasone drug-linker 3-4
B3: ADC 12-9 (anti-hCD74 (LL1) conjugated to Linker 6-2) (antibody, human IgG1, kappa, V domains shown)
VH: B1 VH
VL: B1 VL
modifications: position 121 is para-azido phenylalanine (pAzF), conjugated to dexamethasone drug-linker 6-2
B4: ADC 12-7 (anti-hCD74 (LL1) conjugated to Linker 4-3) (antibody, human IgG1, kappa, V domains shown)
VH: B1 VH
VL: B1 VL
modifications: position 121 is para-azido phenylalanine (pAzF), conjugated to dexamethasone drug-linker 4-3
B5: ADC 12-4 (anti-hCD74 (LL1) conjugated to Linker 1-4) (antibody, human IgG1, kappa, V domains shown)
VH: B1 VH
VL: B1 VL
modifications: position 121 is para-azido phenylalanine (pAzF), conjugated to dexamethasone drug-linker 1-4
B6: ADC 12-10 (anti-hCD74 (LL1) conjugated to Linker 9-4) (antibody, human IgG1, kappa, V domains shown)
VH: B1 VH
VL: B1 VL
modifications: position 121 is para-azido phenylalanine (pAzF), conjugated to budesonide drug-linker 9-4

Target: T1, human CD74
Test: cell-based or functional assay

B1 and B2 are within 1.5-fold of each other in “EC50, GILZ mRNA, HUT-78 cells” value: 1.32 µg/mL for the first, 1.87 µg/mL for the second.

B3 and B4 cannot be ordered by “EC50, GILZ mRNA, HUT-78 cells” value: over 30 µg/mL for the first, over 30 µg/mL for the second.

Going from B5 to B6, the “EC50, GILZ mRNA, HUT-78 cells” value falls from 1.08 µg/mL to 0.2 µg/mL (5.4-fold).

B1 and B2 are within 1.5-fold of each other in “EC50, GILZ mRNA, SUDHL-6 cells” value: 0.4 µg/mL for the first, 0.47 µg/mL for the second.

First: B3
Second: B4
The “EC50, GILZ mRNA, SUDHL-6 cells” value of the first is higher: over 30 µg/mL for the first, 14.3 µg/mL for the second.

Compared with B5, B6 is 4.7-fold lower in “EC50, GILZ mRNA, SUDHL-6 cells” value: 0.99 µg/mL for the first, 0.21 µg/mL for the second.

Going from B1 to B2, the “Emax, GILZ mRNA, HUT-78 cells” value rises from 4.13 to 4.61.

First: B3
Second: B4
The “Emax, GILZ mRNA, HUT-78 cells” value of the first is higher: 2.55 for the first, 1.93 for the second.

Compared with B5, B6 is higher in “Emax, GILZ mRNA, HUT-78 cells” value: 3.95 for the first, 6.47 for the second.

First: B1
Second: B2
The “Emax, GILZ mRNA, SUDHL-6 cells” value of the first is higher: 3.4 for the first, 3.33 for the second.

Going from B3 to B4, the “Emax, GILZ mRNA, SUDHL-6 cells” value falls from 6.48 to 1.52.

Going from B5 to B6, the “Emax, GILZ mRNA, SUDHL-6 cells” value rises from 3.44 to 5.89.
